# Test results reported in the RNAGym collection of RNA variant scans (doi:10.1093/nar/gkz1192).
# B1: CPEB3 Ribozyme (parent)
# chain: UAACAGGGGGCCACAGCAGAAGCGUUCACGUCGCAGCCCCUGUCAGAUUCUGGUGAAUCUGCGAAUUCUGCUGUAUAUCUC
# Variants of: B1
# Assay: self-cleavage, relative activity (ratio to wild type); higher = more cleavage; in vitro, sequencing
# Summary of the method: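 CPEB3 self-cleaving ribozyme mutant libraries were made by rounds of error-prone PCR, barcoded, and transcribed in vitro with T7 RNA polymerase for 5 hours at 37°C. Cleavage occurred during transcription and a 15 min DNase I step before EDTA stop. RNAs were reverse transcribed with template switching and Illumina-sequenced, with DNA sequencing mapping barcodes to variants. Relative activity is the variant's cleaved/total read fraction divided by wild type's (minimum 5 reads), averaged across three batches.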
row,Variant,self-cleavage
1,G9A A21C,0.06
2,G9A A21G,0.19
3,G9A A47U,0.06
4,G9A A47G,0.37
5,G9C U41C,0.15
6,G9U C37U,0.07
7,G9C A35G,0.27
8,G9C C44U,0.18
9,G9U U58C,0.14
10,G9U U26C,0.19
11,G9U U26G,0.09
12,G10A U54G,0.16
13,G10A U54A,0.35
14,G10A U54C,0.19
15,G10A A65C,0.09
16,G10A A65U,0.14
17,G10A A65G,0.12
18,G9A C23U,0.07
19,G9C C71G,0.05
20,G9U A64U,0.06
21,G9U A64G,0.15
22,G9A U41A,0.19
23,G9A U41G,0.26
24,G9A U41C,0.43

row,Variant,self-cleavage
1,G9C G55A,0.41
2,G9A A65U,0.17
3,G9A A65G,0.22
4,G9U C14U,0.11
5,G9U G70A,0.1
6,G9C G30A,0.1
7,G9C G30U,0.22
8,G9C G30C,0.06
9,G9A U80A,0.21
10,G9A U80C,0.23
11,G9A G63A,0.12
12,G10A U49C,0.19
13,G10A U49G,0.18
14,G9C U54C,0.41
15,G9C U74C,0.26
16,G9C A15U,0.1
17,G9C A15G,0.39
18,G9C A15C,0.34
19,G9A U51A,0.27
20,G9A U51C,0.37
21,G9U U31G,0.06
22,G9U U31C,0.13
23,G9A U25C,0.21
24,G9A U25A,0.2

row,Variant,self-cleavage
1,G10A C32U,0.19
2,G10A C32A,0.06
3,G9A U58A,0.07
4,G9A U58G,0.08
5,G9A U58C,0.25
6,G9A U48C,0.36
7,G9U A13G,0.24
8,G9A C38A,0.25
9,G9U G36C,0.07
10,G9U G36A,0.15
11,G10A C59A,0.06
12,G8U U80G,0.2
13,G8U U80A,0.2
14,G8U U80C,0.16
15,G10A U48C,0.2
16,G9U U69G,0.18
17,G9U U69C,0.11
18,G9U U69A,0.11
19,G9A G16A,0.17
20,G9U C29U,0.13
21,G9A U74C,0.6
22,G9A A18U,0.14
23,G9A A18G,0.21
24,G10A G33A,0.19

row,Variant,self-cleavage
1,G10A C44U,0.21
2,G9C U58G,0.06
3,G9A C37U,0.15
4,G10A C29U,0.13
5,G10A C11U,0.5
6,G10A C34U,0.05
7,G10A,0.26
8,G9C U31A,0.19
9,G9C U31C,0.22
10,G9C A75G,0.17
11,G9U A47G,0.29
12,G9U U66G,0.11
13,G9U U66C,0.15
14,G9U C62U,0.13
15,G8U U74G,0.17
16,G9U U43G,0.12
17,G9U U43A,0.52
18,G9U U43C,0.15
19,G9C U72C,0.37
20,G9C U72G,0.09
21,G9A U43A,0.39
22,G9A U43G,0.22
23,G9A U43C,0.29
24,G9U U49C,0.11

row,Variant,self-cleavage
1,G9U U49A,0.41
2,G9A U66C,0.24
3,G9A U66A,0.11
4,G9U U41C,0.32
5,G9U U41A,0.15
6,G10A A77U,0.04
7,G10A A77G,0.08
8,G9A A28U,0.22
9,G9A A28G,0.24
10,G9A A28C,0.2
11,G9U A65G,0.17
12,G9C A56G,0.24
13,G9C U43C,0.13
14,G9U U76C,0.13
15,G9U U76A,0.39
16,G9U C38A,1.09
17,G9A A35G,0.66
18,G9A A35U,0.18
19,G9A G55C,0.24
20,G9A C17U,0.23
21,G9A C17G,0.1
22,G9A U67A,0.11
23,G9A U67C,0.08
24,G9U C40A,0.14

row,Variant,self-cleavage
1,G9U C40U,0.19
2,G10A U60A,0.14
3,G9U U48C,0.29
4,G10A U51C,0.24
5,G10A U51A,0.33
6,G10A U41C,0.31
7,G10A U41G,0.38
8,G10A U41A,0.29
9,G9A G24C,0.2
10,G9A G24A,0.22
11,G9C A47G,0.21
12,G9A C34A,0.2
13,G10A U58C,0.18
14,G10A U58A,0.24
15,G9A C81U,0.35
16,G9C G52A,0.55
17,G9U A20G,0.34
18,G10A C40A,0.19
19,G10A C40U,0.15
20,G9A A77U,0.23
21,G9A A77G,0.3
22,G9A A77C,0.17
23,G9A U76C,0.34
24,G9A U76A,0.45

row,Variant,self-cleavage
1,G10A A64U,0.15
2,G10A A64C,0.18
3,G10A A64G,0.24
4,G9C C79A,0.58
5,G9A G46A,0.13
6,G9U U67C,0.24
7,G9U U67A,0.11
8,G9A G53A,0.35
9,G10A A47G,0.12
10,G9A G52C,0.13
11,G9A G52A,0.24
12,G10A G53C,0.33
13,G10A G53A,0.29
14,G9C U51A,0.09
15,G10A A20U,0.23
16,G10A A20C,0.22
17,G10A A20G,0.3
18,G10A G24A,0.16
19,G9C A21U,0.23
20,G9U U25C,0.14
21,G9U C59U,0.06
22,G9A A64C,0.06
23,G9A A64G,0.3
24,G9A A64U,0.39

row,Variant,self-cleavage
1,G9A A13G,0.3
2,G9A A13U,0.28
3,G10A C71G,0.12
4,G10A C71A,0.11
5,G10A C71U,0.08
6,G10A C17A,0.23
7,G10A C17G,0.3
8,G10A C17U,0.06
9,G10A A57U,0.05
10,G10A A57G,0.29
11,G9A G10C,0.2
12,G9A G10A,0.45
13,G9C A18U,0.08
14,G9C A18G,0.16
15,G9A A56G,0.18
16,G9A A56C,0.24
17,G9A A56U,0.23
18,G9C U67C,0.11
19,G9A U60A,0.22
20,G9A U60C,0.14
21,G10A G36A,0.26
22,G10A A15G,0.24
23,G10A A15U,0.2
24,G10A A45U,0.19

row,Variant,self-cleavage
1,G10A A45G,0.22
2,G9U U54C,0.1
3,G9U U54A,0.08
4,G10A U43G,0.19
5,G10A U43C,0.06
6,G10A U43A,0.28
7,G9A U78A,0.44
8,G9A U78C,0.25
9,G10A U25C,0.23
10,G10A U25A,0.26
11,G10A U25G,0.14
12,G9U A75G,0.13
13,G9U A75U,0.17
14,G9U U60C,0.06
15,G9U U60A,0.15
16,G9A G61A,0.06
17,G9A C27A,0.04
18,G9A U72C,0.39
19,G9A U72A,0.23
20,G9U A21G,0.22
21,G10A C38U,0.08
22,G10A A18U,0.15
23,G10A A18C,0.35
24,G10A A18G,0.23

row,Variant,self-cleavage
1,G10A A56G,0.15
2,G10A A56U,0.12
3,G10A C23A,0.06
4,G9A G22C,0.32
5,G9U U72A,0.09
6,G9U U72C,0.26
7,G9U G63A,0.08
8,G9U G24C,0.11
9,G9C U76C,0.3
10,G9U U80A,0.26
11,G9U U80C,0.24
12,G9A U54A,0.13
13,G9A U54C,0.33
14,G9A G30U,0.06
15,G9A G30A,0.18
16,G9A A20G,0.37
17,G9A A20U,0.43
18,G9A A20C,0.39
19,G9A A57G,0.22
20,G9A A57U,0.15
21,G9A U31A,0.16
22,G9A U31C,0.29
23,G10A A21G,0.24
24,G10A A21C,0.15

row,Variant,self-cleavage
1,G10A A21U,0.13
2,G9U G55A,0.41
3,G9A C68U,0.27
4,G9C A45C,0.25
5,G9C A45U,0.13
6,G9C U25C,0.07
7,G9U G53U,0.36
8,G9U G52U,0.18
9,G9U A35G,0.33
10,G9U A35U,0.14
11,G9U A35C,0.14
12,G10A G42U,0.38
13,G10A G42C,0.16
14,G9U A77U,0.16
15,G9A U49A,0.19
16,G9A U49C,0.23
17,G9U C12U,0.2
18,G10A U31C,0.2
19,G9U A18G,0.19
20,G9U A18U,0.2
21,G9U A18C,0.18
22,G10A U26C,0.22
23,G10A U26A,0.07
24,G10A U26G,0.05

row,Variant,self-cleavage
1,G10A G55A,0.36
2,G10A G55U,0.07
3,G9C,0.24
4,G9U,0.24
5,G9A,0.29
6,G9A G42A,0.3
7,G9A A45U,0.21
8,G9A A45G,0.39
9,G10A A13C,0.28
10,G10A A13G,0.26
11,G10A A13U,0.28
12,G9U A15U,0.32
13,G9U A15C,0.36
14,G9U A15G,0.14
15,G9C A77C,0.18
16,G9C A65G,0.32
17,G9C U60A,0.15
18,G9C U60C,0.25
19,G9A C32U,0.2
20,G10A A28C,0.1
21,G10A A28G,0.21
22,G10A A28U,0.17
23,G9U U51C,0.17
24,G9U U51A,0.14

row,Variant,self-cleavage
1,G9A G33A,0.08
2,G10A G46U,0.17
3,G9A U26G,0.07
4,G9A U26A,0.29
5,G9A U26C,0.21
6,G9U U78A,0.27
7,G9U U78C,0.2
8,G8U U78C,0.17
9,G8U U78A,0.21
10,G9U U74C,0.32
11,G10A C81G,0.3
12,G9C C34A,0.14
13,G10A C39A,0.37
14,G10A C27G,0.16
15,G9C A57U,0.24
16,G10A A35G,0.55
17,G10A A35U,0.11
18,G9U A56G,0.14
19,G9U A56C,0.29
20,G9U A56U,0.29
21,G9U A57G,0.25
22,G9A C40U,0.08
23,G9A C79U,0.16
24,G9C A28G,0.07

row,Variant,self-cleavage
1,G8U U76A,0.28
2,G8U U76C,0.13
3,G9C A64G,0.08
4,G9C A64U,0.23
5,G9U C81U,0.27
6,G9A U69G,0.2
7,G9A U69A,0.21
8,G9A U69C,0.1
9,G9C A20G,0.06
10,G9U A28U,0.13
11,G9U A28G,0.11
12,G9A A75G,0.31
13,G9A A15U,0.15
14,G9A A15G,0.3
15,G9U A45U,0.04
16,G9U A45C,0.05
17,G9U A45G,0.11
18,G9U G19U,0.07
19,G10A G61C,0.09
20,G9A G73A,0.47
21,G10A G30U,0.17
22,G10A A75G,0.19
